Source: IntAct's records for PubMed 28533443

B1: Complement factor H-related protein 1 (Homo sapiens), Q03591 (parent)
chain: MWLLVSVILISRISSVGGEATFCDFPKINHGILYDEEKYKPFSQVPTGEVFYYSCEYNFVSPSKSFWTRITCTEEGWSPTPKCLRLCFFPFVENGHSESSGQTHLEGDTVQIICNTGYRLQNNENNISCVERGWSTPPKCRSTDTSCVNPPTVQNAHILSRQMSKYPSGERVRYECRSPYEMFGDEEVMCLNGNWTEPPQCKDSTGKCGPPPPIDNGDITSFPLSVYAPASSVEYQCQNLYQLEGNKRITCRNGQWSEPPKCLHPCVISREIMENYNIALRWTAKQKLYLRTGESAEFVCKRGYRLSSRSHTLRTTCWDGKLEYPTCAKR
partner: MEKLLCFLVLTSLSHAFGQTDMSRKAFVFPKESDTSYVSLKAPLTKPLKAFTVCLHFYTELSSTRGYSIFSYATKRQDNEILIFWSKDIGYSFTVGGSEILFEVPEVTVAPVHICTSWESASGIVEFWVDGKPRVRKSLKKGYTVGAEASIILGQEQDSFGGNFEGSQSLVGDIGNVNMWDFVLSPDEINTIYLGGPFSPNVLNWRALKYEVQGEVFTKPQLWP

Variants of: B1
Details: with crp_human CRP

effect of a mutation on the interaction | Variant
with no effect | MWLLVSVILISRISSVGGEATFCDFPKINHGILYDEEKYKPFSQVPTGEVFYYSCEYNFVSPSKSFWTRITCTEEGWSPTPKCLRLCFFPFVENGHSESSGQTHLEGDTVQIICNTGYRLQNNENNISCVERGWSTPPKCRSTDTSCVNPPTVQNAYIVSRQMSKYPSGERVRYQCRSPYEMFGDEEVMCLNGNWTEPPQCKDSTGKCGPPPPIDNGDITSFPLSVYAPASSVEYQCQNLYQLEGNKRITCRNGQWSEPPKCLHPCVISREIMENYNIALRWTAKQKLYLRTGESAEFVCKRGYRLSSRSHTLRTTCWDGKLEYPTCAKR [H157Y;L159V;E175Q]
